The data set has as its system Escherichia coli TOP10. The experiment in a line: shrunken log2 fold change of peptide-encoding DNA abundance (4.5 h post-induction vs induction); higher = less antimicrobial activity (less host growth inhibition). The note with it: time post-induction: 4.5 h; library: site-saturation at positions 5, 18, 19, 20.
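Also: peptides expressed intracellularly from a pBAD plasmid library in pooled LB shake-flask culture, induced with 0.3% L-arabinose, DNA abundance read by NGS, three biological replicates, DESeq2 with apeglm shrinkage.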

RRIRLRPPRLPRPRPRPKDQPRP: the “shrunken log2 fold change” value is -0.271.
Take RRIRERPPRLPRPRPRPCSNPRP: the “shrunken log2 fold change” value was determined as 0.0168.
The same measure for RRIRFRPPRLPRPRPRPVTWPRP: -0.271.
Take RRIRIRPPRLPRPRPRPHYFPRP: the “shrunken log2 fold change” value was -0.173.
The same measure for RRIRCRPPRLPRPRPRPAFCPRP: 0.172.
On to RRIRNRPPRLPRPRPRPDATPRP, for which the “shrunken log2 fold change” value was 0.0488.
With RRIRHRPPRLPRPRPRPWRGPRP, the “shrunken log2 fold change” value amounted to 0.115.
The same measure for RRIRYRPPRLPRPRPRPAGLPRP: 0.125; for RRIRIRPPRLPRPRPRPRNKPRP: -0.0432.
For RRIRKRPPRLPRPRPRPQNTPRP, the “shrunken log2 fold change” value stood at 0.00556.
Consider RRIRHRPPRLPRPRPRPWPRPRP, for which the “shrunken log2 fold change” value was 0.166.
As to RRIRTRPPRLPRPRPRPKKNPRP, the “shrunken log2 fold change” value worked out at 0.409.
RRIRHRPPRLPRPRPRPCTPPRP: the “shrunken log2 fold change” value was -0.382.
Under RRIRHRPPRLPRPRPRPIDHPRP stands -0.267.
For RRIRTRPPRLPRPRPRPAVEPRP, the “shrunken log2 fold change” value is -0.011.
The same measure for RRIRNRPPRLPRPRPRPVDAPRP: 0.154; for RRIRWRPPRLPRPRPRPYMQPRP: -0.422; for RRIRHRPPRLPRPRPRPHFEPRP: 0.0715.
The same measure for RRIRVRPPRLPRPRPRPMSKPRP: -0.0756; for RRIRTRPPRLPRPRPRPHFLPRP: -0.218.
As to RRIRWRPPRLPRPRPRPEAVPRP, the “shrunken log2 fold change” value was found to be 1.05.
The same measure for RRIRHRPPRLPRPRPRPLGMPRP: -0.227.
RRIRNRPPRLPRPRPRPMPRPRP: the “shrunken log2 fold change” value was 0.11.
RRIRQRPPRLPRPRPRPNSNPRP: the “shrunken log2 fold change” value was -0.648.
The same measure for RRIRVRPPRLPRPRPRPEYLPRP: -0.191; for RRIRMRPPRLPRPRPRPDDQPRP: -0.0167; for RRIRKRPPRLPRPRPRPTWYPRP: -0.0991.
For RRIRLRPPRLPRPRPRPWFKPRP, the “shrunken log2 fold change” value is -0.86.
The same measure for RRIRHRPPRLPRPRPRPCMKPRP: 0.0319.
Under RRIRSRPPRLPRPRPRPQDCPRP stands -0.261.
The same measure for RRIRRRPPRLPRPRPRPIIDPRP: -0.125; for RRIRRRPPRLPRPRPRPRHYPRP: 0.279; for RRIRHRPPRLPRPRPRPGGDPRP: 0.0994.
For the sequence RRIRFRPPRLPRPRPRPSCSPRP, the “shrunken log2 fold change” value was -0.498.
Under RRIRCRPPRLPRPRPRPTSMPRP stands -0.308.
The same measure for RRIRYRPPRLPRPRPRPSQSPRP: -0.804; for RRIRTRPPRLPRPRPRPKYIPRP: -0.748.
The same measure for RRIRARPPRLPRPRPRPQVEPRP: 0.399.
Take RRIRLRPPRLPRPRPRPCFWPRP: the “shrunken log2 fold change” value was 0.14.
The same measure for RRIRMRPPRLPRPRPRPLNLPRP: -0.0841; for RRIRRRPPRLPRPRPRPWPKPRP: 0.13; for RRIRPRPPRLPRPRPRPRYDPRP: 0.0231.
Under RRIRHRPPRLPRPRPRPVPRPRP stands 0.429.
Under RRIRRRPPRLPRPRPRPLKCPRP stands 0.0734; under RRIRNRPPRLPRPRPRPVMFPRP, -0.0883.
As to RRIRRRPPRLPRPRPRPWKAPRP, the “shrunken log2 fold change” value turned out to be 0.0256.
With RRIRVRPPRLPRPRPRPRNHPRP, the “shrunken log2 fold change” value is 0.0133.
The same measure for RRIRVRPPRLPRPRPRPSIKPRP: -0.552; for RRIRCRPPRLPRPRPRPPLNPRP: 0.212.
The same measure for RRIRARPPRLPRPRPRPDGPPRP: 0.455.
Under RRIRDRPPRLPRPRPRPANSPRP stands 2.98.
On to RRIRKRPPRLPRPRPRPGVYPRP, for which the “shrunken log2 fold change” value turned out to be 2.46.
Under RRIRSRPPRLPRPRPRPYCIPRP stands -0.26; under RRIRHRPPRLPRPRPRPGMLPRP, -0.0926.
Under RRIRPRPPRLPRPRPRPSFYPRP stands -0.303; under RRIRVRPPRLPRPRPRPAHGPRP, 0.0221.
Regarding RRIRKRPPRLPRPRPRPIYIPRP, the “shrunken log2 fold change” value was -0.127.
Under RRIRCRPPRLPRPRPRPIGQPRP stands 0.0567; under RRIRARPPRLPRPRPRPRNDPRP, 0.0481.
With RRIRARPPRLPRPRPRPIIVPRP, the “shrunken log2 fold change” value was -0.226.
Under RRIRRRPPRLPRPRPRPHCRPRP stands 0.103; under RRIRLRPPRLPRPRPRPRCYPRP, 0.0161; under RRIRWRPPRLPRPRPRPAYMPRP, -0.205.
For the sequence RRIRTRPPRLPRPRPRPRRSPRP, the “shrunken log2 fold change” value was 0.318.
In the case of RRIRGRPPRLPRPRPRPMDHPRP, the “shrunken log2 fold change” value was -0.137.
Under RRIRRRPPRLPRPRPRPAMWPRP stands 0.451; under RRIRARPPRLPRPRPRPIVYPRP, -0.248; under RRIRCRPPRLPRPRPRPNMWPRP, -0.0109.
For the sequence RRIRWRPPRLPRPRPRPPVSPRP, the “shrunken log2 fold change” value was 0.289.
Turning to RRIRMRPPRLPRPRPRPRFRPRP, the “shrunken log2 fold change” value worked out at 0.784.
Turning to RRIRVRPPRLPRPRPRPIMDPRP, the “shrunken log2 fold change” value was -0.151.
The same measure for RRIRPRPPRLPRPRPRPMFIPRP: -0.439; for RRIRERPPRLPRPRPRPHVWPRP: 0.191; for RRIRLRPPRLPRPRPRPHVHPRP: -0.0727.
Regarding RRIRGRPPRLPRPRPRPYHKPRP, the “shrunken log2 fold change” value was -0.331.
The same measure for RRIRHRPPRLPRPRPRPIMIPRP: -0.192; for RRIRKRPPRLPRPRPRPWRLPRP: -0.0807; for RRIRNRPPRLPRPRPRPQPNPRP: -0.047.
Under RRIRQRPPRLPRPRPRPPCLPRP stands -0.192.
Consider RRIRWRPPRLPRPRPRPVQCPRP, for which the “shrunken log2 fold change” value is 0.039.
Take RRIRTRPPRLPRPRPRPIQKPRP: the “shrunken log2 fold change” value was -0.00925.
The same measure for RRIRNRPPRLPRPRPRPEYTPRP: -0.0431; for RRIRWRPPRLPRPRPRPVKTPRP: 0.00121; for RRIRLRPPRLPRPRPRPTQGPRP: 0.852.
For RRIRQRPPRLPRPRPRPWRSPRP, the “shrunken log2 fold change” value stood at 0.0241.
Take RRIRSRPPRLPRPRPRPIINPRP: the “shrunken log2 fold change” value was -0.565.
Under RRIRFRPPRLPRPRPRPRQVPRP stands -0.331.
Under RRIRPRPPRLPRPRPRPHNPPRP stands -0.0801; under RRIRDRPPRLPRPRPRPTILPRP, 0.242; under RRIRRRPPRLPRPRPRPDWNPRP, -0.223.
Under RRIRIRPPRLPRPRPRPQYLPRP stands -0.346; under RRIRTRPPRLPRPRPRPHLDPRP, -0.175; under RRIRWRPPRLPRPRPRPPMWPRP, 0.108.
RRIRMRPPRLPRPRPRPKYYPRP: the “shrunken log2 fold change” value was -0.0662.
Take RRIRNRPPRLPRPRPRPGANPRP: the “shrunken log2 fold change” value is -0.151.
For the sequence RRIRMRPPRLPRPRPRPVANPRP, the “shrunken log2 fold change” value stood at 0.331.
As to RRIRHRPPRLPRPRPRPQKMPRP, the “shrunken log2 fold change” value is -0.132.
The same measure for RRIRIRPPRLPRPRPRPDVCPRP: -0.225; for RRIRKRPPRLPRPRPRPTHIPRP: 0.328; for RRIRKRPPRLPRPRPRPFPHPRP: -0.04.
Take RRIRDRPPRLPRPRPRPEYVPRP: the “shrunken log2 fold change” value is -0.00373.
With RRIRSRPPRLPRPRPRPRVDPRP, the “shrunken log2 fold change” value was determined as 0.0568.
RRIRKRPPRLPRPRPRPWACPRP: the “shrunken log2 fold change” value stood at 0.0099.
Regarding RRIRLRPPRLPRPRPRPTLGPRP, the “shrunken log2 fold change” value was 0.222.
As for RRIRPRPPRLPRPRPRPVWVPRP, the “shrunken log2 fold change” value is 0.0215.
Under RRIRARPPRLPRPRPRPAMWPRP stands 0.317.
Under RRIRVRPPRLPRPRPRPRRDPRP stands 0.141; under RRIRKRPPRLPRPRPRPATHPRP, 0.426; under RRIRQRPPRLPRPRPRPELFPRP, -0.0927.
The same measure for RRIRNRPPRLPRPRPRPCLWPRP: -0.359; for RRIRARPPRLPRPRPRPHTRPRP: 0.0581.
With RRIRCRPPRLPRPRPRPSYAPRP, the “shrunken log2 fold change” value was -0.544.
Under RRIRMRPPRLPRPRPRPLYSPRP stands -1.32; under RRIRERPPRLPRPRPRPFMYPRP, -0.551; under RRIRYRPPRLPRPRPRPKHVPRP, -0.4.
Regarding RRIRLRPPRLPRPRPRPYRKPRP, the “shrunken log2 fold change” value is -0.262.
Consider RRIRARPPRLPRPRPRPRMMPRP, for which the “shrunken log2 fold change” value was 0.229.
Take RRIRKRPPRLPRPRPRPSKEPRP: the “shrunken log2 fold change” value was 0.0111.
Under RRIRPRPPRLPRPRPRPGWPPRP stands 0.667; under RRIRVRPPRLPRPRPRPMECPRP, -0.00192; under RRIRARPPRLPRPRPRPHPMPRP, -0.026.
Under RRIRDRPPRLPRPRPRPMRTPRP stands 0.519.
On to RRIRDRPPRLPRPRPRPKAYPRP, for which the “shrunken log2 fold change” value is 0.053.
Turning to RRIRQRPPRLPRPRPRPDEQPRP, the “shrunken log2 fold change” value is 0.0145.
Take RRIRMRPPRLPRPRPRPQVPPRP: the “shrunken log2 fold change” value was -0.0842.
